Measured values: US9695460B2, “Method of analyzing L-tryptophan in biological samples, and kit used therein” (Toyama Prefecture, priority 2011, dated 2017)

Assays:
[1] = tested on: L-amino acid oxidase derived from Coprinus sp.; conditions: Japanese Un-examined patent publication No. 2001-069974, read-out: Km value for L-tryptophan; cited from earlier work
[2] = tested on: VioA, L-tryptophan oxidase derived from Chromobacterium violaceum, SEQ ID NO: 1; conditions: reported in Balibar and Walsh (2006) Biochemistry 45, 15444-15457; cited from earlier work
[3] = substrate: N[C@@H](Cc1c[nH]c2ccccc12)C(=O)O; assay: Km value of L-tryptophan oxidase StaO for L-tryptophan (peroxidase-coupled, absorbance at 505 nm); type: biochemical, Streptomyces sp. TA-A0724; conditions: other: StaO, 20 mM tris-hydrochloric acid buffer pH 8.0, 30° C., 0-500 μM L-tryptophan, 0.5 mU/mL enzyme
From the text: StaO is an enzyme that has the amino acid sequence given in SEQ ID NO: 2 in the Sequence Listing, that has oxidase activity of acting on L-tryptophan in the presence of oxygen and water to produce hydrogen peroxide and ammonia, that has oxidase activity on L-phenylalanine falling within a range of 0 to 3% of the oxidase activity on L-tryptophan, and that has no oxidase activity on the protein-constituting amino acids other than L-tryptophan and L-phenylalanine. StaO can be derived from Streptomyces sp. TA-A0724. The gene encoding StaO was discovered in the biosynthesis gene cluster of staurosporine, an antibiotic produced by the above bacterium (Onaka, H., Taniguchi, S., Igarashi, Y., and Furumai, T. (2002) J Antibiot 55, 1063-1071). This gene has no significant homology with the VioA gene, nor is there any example of biological analysis of the genetic product. Thus, the properties of the genetic product were unknown. […]
The supernatant of each solution of the ruptured expression strains was loaded onto an Ni Sepharose column made by GE Healthcare, washed with 20 mM Tris-HCl and 50 mM imidazole (pH 8.0), and then eluted with a solution of 20 mM Tris-HCl and 500 mM imidazole (pH 8.0) to purify and recover the target enzyme. The base sequences of these enzymes were determined, and are shown as SEQ ID NOS: 3 and 4. […]

[4] = Stability on storage at 4° C. at various glycerol concentrations; type: physicochemical
Protocol: Glycerol was added to final concentrations of 0 to 50% (v/v) to StaO and VioA purified enzyme solutions. The enzymatic solutions were stored at 4° C., sampled over time, and the activity was measured. The change over time in the residual activity of StaO and VioA stored in the presence of various glycerol concentrations are given in FIGS. 7 and 8.

[5] = Thermal stability (residual activity after 1 hour heat treatment); type: physicochemical; conditions: activity prior to heat treatment as 100, StaO in 20% glycerol, VioA in 10% glycerol
Protocol: The activity was measured after heat treating StaO enzyme solutions containing 20% glycerol and VioA enzyme solutions containing 10% glycerol for 1 hour at 30, 40, 50, 60, and 70° C. […] At heat treatments of 50° C. and above, the residual activity dropped below the detection limit.

[6] = Substrate specificity for amino acids of L-tryptophan oxidase (peroxidase-coupled, absorbance at 505 nm); type: biochemical
Protocol: A reaction solution of 20 mM tris-hydrochloric acid buffer (pH 8.0), 5 mM L-tryptophan, 1 mM phenol, 1 mM 4-aminoantipyrine, 15 U/mL horseradish-derived peroxidase, and some quantity of L-tryptophan oxidase enzyme solution was prepared and the change in absorbance at 505 nm was measured at 30° C. The mol absorbance coefficient of quinoneimine dye was considered to be 6.4 mM^−1·cm^−1. Activity generating 1 μmol of hydrogen peroxide per minute was defined as 1 U. The detection limit of this method was 0.5%.
Reaction solutions each containing 20 mM of tris-hydrochloric acid buffer (pH 8.0), 1 mM of phenol, 1 mM of 4-aminoantipyrine, 15 U/mL of horseradish-derived peroxidase, 0.2 to 20 mU/mL of L-tryptophan oxidase, and 0.5 mM of an amino acid (one of the 20 protein-constituting amino acids) were prepared and the change in absorbance at 505 nm was measured at 30° C. The relative activity for each amino acid was calculated from the measurement values obtained, yielding the results given in Table 1. The detection limit of this method was 0.5%.

[7] = Dependence on reaction temperature; type: biochemical
Protocol: StaO and VioA activity measurement was conducted at reaction temperatures of 20, 30, 40, 50, and 60° C. An activity measurement reaction solution of 20 mM of tris-hydrochloric acid buffer (pH 8.0), 1 mM of L-tryptophan, 1 mM of phenol, 1 mM of 4-aminoantipyrine, 15 U/mL of horseradish-derived peroxidase, and L-tryptophan oxidase enzyme solution was employed. Everything in the above reaction solution but the peroxidase and L-tryptophan oxidase enzyme solution was admixed, and 10 minutes of preincubation was conducted at various temperatures. While maintaining the temperature of the reaction solution, the peroxidase and the L-tryptophan oxidase enzyme solution were added and the reaction was begun. The change in absorbance at 505 nm was rapidly measured. […] The effect of deactivation at high temperature became marked in StaO at 60° C. and in VioA at 50° C. and above, making it difficult to accurately measure the activity.

[8] = 0.5 mM amino acid, pH 8.0, 30° C., No activity = at or below detection limit 0.5%
[9] = activity at 20° C. as 100, 1 mM L-tryptophan, pH 8.0
[10] = activity at 20° C. as 100, * = estimated value when greatly impacted by thermal deactivation

In the case of `N[C@@H](Cc1c[nH]c2ccccc12)C(=O)O` [L-tryptophan], the Km [1] is listed as 650 µM and the Km [2] is listed as 30 µM.

B1: StaO, L-tryptophan oxidase derived from Streptomyces sp. TA-A0724, SEQ ID NO: 2 (Streptomyces sp. TP-A0274) (protein)
chain: MTAPLQDSDGPDDAIGGPKQVTVIGAGIAGLVTAYELERLGHHVQIIEGSDDIGGRIHTHRFSGAGGPGPFAEMGAMRIPAGHRLTMHYIAELGLQNQVREFRTLFSDDAAYLPSSAGYLRVREAHDTLVDEFATGLPSAHYRQDTLLFGAWLDASIRAIAPRQFYDGLHNDIGVELLNLVDDIDLTPYRCGTARNRIDLHALFADHPRVRASCPPRLERFLDDVLDETSSSIVRLKDGMDELPRRLASRIRGKISLGQEVTGIDVHDDTVTLTVRQGLRTVTRTCDYVVCTIPFTVLRTLRLTGFDQDKLDIVHETKYWPATKIAFHCREPFWEKDGISGGASFTGGHVRQTYYPPAEGDPALGAVLLASYTIGPDAEALARMDEAERDALVAKELSVMHPELRRPGMVLAVAGRDWGARRWSRGAATVRWGQEAALREAERRECARPQKGLFFAGEHCSSKPAWIEGAIESAIDAAHEIEWYEPRASRVFAASRLSRSDRSA
notes: peroxidase-coupled assay
Molecule B1 has a Km [3] of 19 μM μM.

B2: StaO: L-tryptophan oxidase with the amino acid sequence of SEQ ID NO: 2, derived from Streptomyces sp. TA-A0724, His-tagged, expressed in E. coli (protein)
chain: B1 chain
modifications: His tag; Streptomyces sp. TP-A0274
notes: TA-A0724, His-tagged, expressed in E. coli
In the case of B2, the “Stability of enzyme solution on storage” value ([4]; 30% or more of glycerol added) is reported as “high stability”, the “Stability of enzyme solution on storage” value ([4]; buffer only, no glycerol) is reported as “unstable” and the “Relative (residual) activity following heat treatment at 30° C.” value [5] is reported as 73. For the same molecule, the “Relative (residual) activity following heat treatment at 40° C.” value [5] was 1, the “Relative (residual) activity following heat treatment at ≧50° C.” value [5] was under 1 and the “Relative activity, L-tryptophan” value ([6]; 0.5 mM amino acid, pH 8.0, 30° C., L-tryptophan = 100%) was 100%. For the same molecule, the “Relative activity, L-tyrosine” value [6, 8] was “No activity”, the “Relative activity, other amino acids (17 listed in the footnote)” value [6, 8] was “No activity” and the “Reactivity to amino acids other than L-tryptophan” value ([6]; relative activity below the detection limit (0.5%)) was “did not exhibit reactivity”. For the same molecule, the “Relative activity at reaction temperature 20° C.” value [7, 9] was 100, the “Relative activity at reaction temperature 30° C.” value [7, 9] was 156 and the “Relative activity at reaction temperature 40° C.” value [7, 9] was 268. The “Relative activity at reaction temperature 50° C.” value [7, 10] was 427, the “Relative activity at reaction temperature 60° C.” value [7, 10] was 480* and the “Reaction temperature at which the effect of deactivation became marked” value ([7]; activity measurement at 20-60° C.) was 60 °C.
